# Measurements published in patent US20140363428A1 (Chugai, published 2014).
# Molecular target: T1, soluble human FcRn (heterodimer of FcRn alpha chain and beta2-microglobulin) (human, UniProt P55899 24-297; P61769 21-119)
# T1 construct: Expressed in HEK293H and purified on IgG Sepharose; also called hFcRn
# Assay: SPR Biacore T100, antibody captured via protein L, hFcRn analyte, pH 7.0, 25 C;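 note: KD derived from kinetic ka and kd fits of sensorgrams, CM4 sensor chip, sodium phosphate NaCl Tween20 running buffer, buffer-only injection used as reference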
# Experimental: An appropriate amount of protein L (ACTIGEN) was immobilized onto Sensor chip CM4 (GE Healthcare) by the amino coupling method, and the chip was allowed to capture an antibody of interest. Then, diluted FcRn solutions and running buffer (as a reference solution) were injected to allow human FcRn to interact with the antibody captured on the sensor chip. The running buffer used comprised 50 mmol/l sodium phosphate, 150 mmol/l NaCl, and 0.05% (w/v) Tween20 (pH 7.0). FcRn was diluted using each buffer. The chip was regenerated using 10 mmol/l glycine-HCl (pH 1.5). Assays were carried out exclusively at 25 degrees C. The association rate constant ka (1/Ms) and dissociation rate constant kd (1/s), both of which are kinetic parameters, were calculated based on the sensorgrams obtained in the assays, and KD (M) of each antibody for human FcRn was determined from these values. Each parameter was calculated using Biacore T100 Evaluation Software (GE Healthcare).
row,Kd,Binder
1,90 nM,"IgG1-F1126 (antibody, VH3-IgG1 with Fc substitutions (EU numbering) + L(WT)-CK) heavy: QVQLQESGPGLVKPSETLSLTCAVSGHSISHDHAWSWVRQPPGEGLEWIGFISYSGITNYNPSLQGRVTISRDNSKNTLYLQMNSLRAEDTAVYYCARSLARTTAMDYWGEGTLVTVSSASTKGPSVFPLAPSSKSTSGGTAALGCLVKDYFPEPVTVSWNSGALTSGVHTFPAVLQSSGLYSLSSVVTVPSSSLGTQTYICNVNHKPSNTKVDKKVEPKSCDKTHTCPPCPAPELLGGPSVFLFPPKPKDTLYISRTPEVTCVVVDVSHEDPEVKFNWYVDGVEVHNAKTKPREEQYNSTYRVVSVLAVLHQDWLNGKEYKCKVSNKALPAPIEKTISKAKGQPREPQVYTLPPSRDELTKNQVSLTCLVKGFYPSDIAVEWESNGQPENNYKTTPPVLDSDGSFFLYSKLTVDKSRWQQGNVFSCSVMHEALHYHVTQKSLSLSP light: not shown"
2,120 nM,"IgG1-F1128 (antibody, VH3-IgG1 with Fc substitutions (EU numbering) + L(WT)-CK) heavy: QVQLQESGPGLVKPSETLSLTCAVSGHSISHDHAWSWVRQPPGEGLEWIGFISYSGITNYNPSLQGRVTISRDNSKNTLYLQMNSLRAEDTAVYYCARSLARTTAMDYWGEGTLVTVSSASTKGPSVFPLAPSSKSTSGGTAALGCLVKDYFPEPVTVSWNSGALTSGVHTFPAVLQSSGLYSLSSVVTVPSSSLGTQTYICNVNHKPSNTKVDKKVEPKSCDKTHTCPPCPAPELLGGPSVFLFPPKPKDTLYISRTPEVTCVVVDVSHEDPEVKFNWYVDGVEVHNAKTKPREEQYNSTYRVVSVLTVLHHDWLNGKEYKCKVSNKALPAPIEKTISKAKGQPREPQVYTLPPSRDELTKNQVSLTCLVKGFYPSDIAVEWESNGQPENNYKTTPPVLDSDGSFFLYSKLTVDKSRWQQGNVFSCSVMHEALHYHVTQKSLSLSP light: not shown"
3,79 nM,"IgG1-F1127 (antibody, VH3-IgG1 with Fc substitutions (EU numbering) + L(WT)-CK) heavy: QVQLQESGPGLVKPSETLSLTCAVSGHSISHDHAWSWVRQPPGEGLEWIGFISYSGITNYNPSLQGRVTISRDNSKNTLYLQMNSLRAEDTAVYYCARSLARTTAMDYWGEGTLVTVSSASTKGPSVFPLAPSSKSTSGGTAALGCLVKDYFPEPVTVSWNSGALTSGVHTFPAVLQSSGLYSLSSVVTVPSSSLGTQTYICNVNHKPSNTKVDKKVEPKSCDKTHTCPPCPAPELLGGPSVFLFPPKPKDTLYISRTPEVTCVVVDVSHEDPEVKFNWYVDGVEVHNAKTKPREEQYNSTYRVVSVLTVLHADWLNGKEYKCKVSNKALPAPIEKTISKAKGQPREPQVYTLPPSRDELTKNQVSLTCLVKGFYPSDIAVEWESNGQPENNYKTTPPVLDSDGSFFLYSKLTVDKSRWQQGNVFSCSVMHEALHYHVTQKSLSLSP light: not shown"
4,45 nM,"IgG1-F1129 (antibody, VH3-IgG1 with Fc substitutions (EU numbering) + L(WT)-CK) heavy: QVQLQESGPGLVKPSETLSLTCAVSGHSISHDHAWSWVRQPPGEGLEWIGFISYSGITNYNPSLQGRVTISRDNSKNTLYLQMNSLRAEDTAVYYCARSLARTTAMDYWGEGTLVTVSSASTKGPSVFPLAPSSKSTSGGTAALGCLVKDYFPEPVTVSWNSGALTSGVHTFPAVLQSSGLYSLSSVVTVPSSSLGTQTYICNVNHKPSNTKVDKKVEPKSCDKTHTCPPCPAPELLGGPSVFLFPPKPKDTLYISRTPEVTCVVVDVSHEDPEVKFNWYVDGVEVHNAKTKPREEQYNSTYRVVSVLQVLHHDWLNGKEYKCKVSNKALPAPIEKTISKAKGQPREPQVYTLPPSRDELTKNQVSLTCLVKGFYPSDIAVEWESNGQPENNYKTTPPVLDSDGSFFLYSKLTVDKSRWQQGNVFSCSVMHEALHYHVTQKSLSLSP light: not shown"
5,55 nM,"IgG1-F1130 (antibody, VH3-IgG1 with Fc substitutions (EU numbering) + L(WT)-CK) heavy: QVQLQESGPGLVKPSETLSLTCAVSGHSISHDHAWSWVRQPPGEGLEWIGFISYSGITNYNPSLQGRVTISRDNSKNTLYLQMNSLRAEDTAVYYCARSLARTTAMDYWGEGTLVTVSSASTKGPSVFPLAPSSKSTSGGTAALGCLVKDYFPEPVTVSWNSGALTSGVHTFPAVLQSSGLYSLSSVVTVPSSSLGTQTYICNVNHKPSNTKVDKKVEPKSCDKTHTCPPCPAPELLGGPSVFLFPPKPKDTLYISRTPEVTCVVVDVSHEDPEVKFNWYVDGVEVHNAKTKPREEQYNSTYRVVSVLAVLHADWLNGKEYKCKVSNKALPAPIEKTISKAKGQPREPQVYTLPPSRDELTKNQVSLTCLVKGFYPSDIAVEWESNGQPENNYKTTPPVLDSDGSFFLYSKLTVDKSRWQQGNVFSCSVMHEALHYHVTQKSLSLSP light: not shown"
